# Reference: patent US20230042095A1 (AstraZeneca / MedImmune, published 2023)
# B1: h5D8 (humanized 5D8 comprising H2 and L2) (antibody, human IgG1, kappa, V domains shown)
# VH: QVQLQESGGGLVKPGGSLRLSCAASGFTFSHAWMHWVRQAPGKGLEWVGQIKAKSDDYATYYAESVKGRFTISRDDSKNTLYLQMNSLKTEDTAVYYCTCWEWDLDFWGQGTMVTVSS
# VL: DIVMTQTPLSSPVTLGQPASISCRSSQSLLDSDGHTYLNWLQQRPGQPPRLLIYSVSNLESGVPDRFSGSGAGTDFTLKISRVEAEDVGVYYCMQATHAPPYTFGQGTKLEIKR
# notes: also called H2L2; G (H2L2)
# B2: human LIF (source not stated) (ligand)
# chain: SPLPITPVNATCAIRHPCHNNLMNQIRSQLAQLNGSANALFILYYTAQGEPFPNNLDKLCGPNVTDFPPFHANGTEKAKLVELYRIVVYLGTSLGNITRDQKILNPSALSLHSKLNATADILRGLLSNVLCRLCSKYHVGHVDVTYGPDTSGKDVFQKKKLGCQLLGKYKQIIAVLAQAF
# notes: also called hLIF; recombinant human LIF protein
# What was measured:
# [1] = molecular target: LIF acting on U251 / U-251 glioma cells (endogenous LIF) (human, UniProt P15018 23-202); experiment: cell-based or functional assay
# recombinant human LIFR = molecular target: T1, recombinant human LIFR (human, UniProt P42702 45-833, limits assumed); experiment: BLI (Octet RED96), control experiment, h5D8 on anti-human Fc sensor
# T1 construct: also called hLIFR; LIF receptor
# T1 sequence (looked up): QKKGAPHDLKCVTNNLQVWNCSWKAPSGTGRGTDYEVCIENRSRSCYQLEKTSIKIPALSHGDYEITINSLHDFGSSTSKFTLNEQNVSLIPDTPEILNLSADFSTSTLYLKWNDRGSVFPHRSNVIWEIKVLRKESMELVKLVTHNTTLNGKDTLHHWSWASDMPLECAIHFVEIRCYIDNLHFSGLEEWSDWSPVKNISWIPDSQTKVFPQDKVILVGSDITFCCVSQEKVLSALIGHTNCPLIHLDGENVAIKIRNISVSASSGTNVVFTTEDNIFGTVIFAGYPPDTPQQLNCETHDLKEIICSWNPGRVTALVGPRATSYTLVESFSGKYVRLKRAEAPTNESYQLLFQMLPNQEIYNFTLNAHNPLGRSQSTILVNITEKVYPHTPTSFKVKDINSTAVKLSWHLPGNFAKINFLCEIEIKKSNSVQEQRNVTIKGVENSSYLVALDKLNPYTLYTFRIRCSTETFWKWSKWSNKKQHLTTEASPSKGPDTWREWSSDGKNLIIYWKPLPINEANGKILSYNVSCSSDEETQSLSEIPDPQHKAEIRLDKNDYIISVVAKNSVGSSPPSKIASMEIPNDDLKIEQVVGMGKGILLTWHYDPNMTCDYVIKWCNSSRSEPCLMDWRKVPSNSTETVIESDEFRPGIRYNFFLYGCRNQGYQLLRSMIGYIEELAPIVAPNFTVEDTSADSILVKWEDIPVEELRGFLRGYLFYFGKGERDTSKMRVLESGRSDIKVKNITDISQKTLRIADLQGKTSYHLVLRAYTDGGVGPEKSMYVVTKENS
# huIL-6 (E. coli) = molecular target: T2, huIL-6 (E. coli) (human, UniProt P05231 30-212, limits assumed); experiment: BLI (Octet), h5D8 amine-coupled to AR2G sensor, cytokine as analyte
# T2 construct: also called human IL-6
# Procedure: Kinetics experiments were then performed with the following Dip and Read steps at 30° C., 1000 rpm: vi) 60 seconds Baseline in 1× kinetics buffer; vii) 180 seconds Association of appropriate serial dilutions of a cytokine in 1× kinetics buffer; viii) 300 seconds Dissociation in 1× kinetics buffer; ix) Three Regeneration/Neutralization cycles alternating between 10 mM glycine pH 2.0 and 1× kinetics buffer respectively (5 seconds in each for 3 cycles). Following regeneration, the biosensors were reused for subsequent binding analyses.
# recombinant human gp130 = molecular target: T3, recombinant human gp130 (human, UniProt P40189 23-619, limits assumed); experiment: ELISA of mAb/LIF complexes on immobilized gp130, read through the antibody part (B09, anti-rat IgG-peroxidase)
# T3 sequence (looked up): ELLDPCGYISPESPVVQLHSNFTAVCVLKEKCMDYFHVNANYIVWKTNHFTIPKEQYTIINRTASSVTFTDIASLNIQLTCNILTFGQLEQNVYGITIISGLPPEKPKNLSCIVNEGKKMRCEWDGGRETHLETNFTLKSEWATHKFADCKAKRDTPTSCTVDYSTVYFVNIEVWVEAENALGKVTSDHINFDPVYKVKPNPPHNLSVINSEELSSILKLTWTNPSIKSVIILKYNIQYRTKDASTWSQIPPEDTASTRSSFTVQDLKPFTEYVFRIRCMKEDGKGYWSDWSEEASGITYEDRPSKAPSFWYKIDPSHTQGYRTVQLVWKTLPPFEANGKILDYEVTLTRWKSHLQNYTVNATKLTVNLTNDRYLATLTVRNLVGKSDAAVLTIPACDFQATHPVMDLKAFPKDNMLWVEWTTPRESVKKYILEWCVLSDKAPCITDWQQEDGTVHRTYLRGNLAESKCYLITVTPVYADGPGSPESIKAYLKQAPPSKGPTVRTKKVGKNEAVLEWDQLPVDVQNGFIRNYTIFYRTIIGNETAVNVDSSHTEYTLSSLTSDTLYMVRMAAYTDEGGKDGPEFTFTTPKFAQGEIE
# Sequence of LIF acting on U251 / U-251 glioma cells (endogenous LIF) (P15018 23-202 limits assumed): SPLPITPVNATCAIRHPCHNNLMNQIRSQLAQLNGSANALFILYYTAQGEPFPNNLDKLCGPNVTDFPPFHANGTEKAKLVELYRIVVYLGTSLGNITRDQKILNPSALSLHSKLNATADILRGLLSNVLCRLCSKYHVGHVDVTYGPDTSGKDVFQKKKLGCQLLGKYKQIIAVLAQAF
# T2 sequence (P05231 30-212 limits assumed): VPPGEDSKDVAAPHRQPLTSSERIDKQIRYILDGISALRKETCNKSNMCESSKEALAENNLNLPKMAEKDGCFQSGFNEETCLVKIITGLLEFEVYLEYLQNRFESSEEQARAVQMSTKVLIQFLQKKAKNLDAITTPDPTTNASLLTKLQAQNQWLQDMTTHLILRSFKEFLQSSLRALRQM
Binder,"IC50 for biological inhibition (pSTAT3), serum starved U-251 cells [1] [picomolar]",binding result (recombinant human LIFR),binding result (huIL-6 (E. coli)),binding result (recombinant human gp130)
B1,490,no binding,no binding,–
B2,–,–,–,binds
